In patent US7951356B1, “Tissue factor compositions and kits for coagulation and tumor treatment” (Board of Regents, The University of Texas System, priority 1997, dated 2011):

How the values were obtained:
[1] = tested on: HT29 (human colorectal carcinoma) xenograft; experiment: Tumor necrosis in HT29 xenografts 24 hours after treatment (Example XII); assay type: in vivo, mouse; details: 24 hours after intravenous injection; tumors 0.5 to 1.0 cm^3; FIG. 23
Method: For these studies, the inventors chose the HT29 (human colorectal carcinoma) xenograft tumor model. HT29 cells (10^7 cells/mouse) were subcutaneously injected into BALB/c nu/nu mice. Tumor dimensions were monitored and animals were treated when the tumor size was between 0.5 and 1.0 cm^3.
Animals were sacrificed 24 hours after treatment, perfused with saline and heparin and exsanguinated. Tumors and organs were collected, formalin fixed and histological sections were prepared. The average area of necrosis in sections of the tumors was quantified and calculated as a percentage of the total area of tumor on the section.

[2] = cited from earlier work
[3] = tested on: L540 human Hodgkin's disease tumors; experiment: Anti-tumor effects (tumor growth), L540 tumors; assay type: in vivo, mouse; details: day 14; FIG. 19
Method: (§1) Accepted animal models were used to determine whether administration of tTF or immunoglobulin-tTF conjugates suppressed the growth of solid tumors in mice. The tumor test systems were: i) L540 human Hodgkin's disease tumors growing in SCID mice; ii) C1300 Muγ (interferon-secreting) neuroblastoma growing in nu/nu mice; iii) H460 human non-small cell lung carcinoma growing in nu/nu mice. To establish solid tumors, 1.5×10^7 tumor cells were injected subcutaneously into the right anterior flank of SCID or BALB/c nu/nu mice (Charles River Labs., Wilmingham, Mass.). When the tumors had grown to various diameters, mice were assigned to different experimental groups, each containing 4 to 9 mice.
(§2) Mice then received an intravenous injection of 0.5 mg/kg of tTF alone or linked to bispecific antibody. Other mice received equivalent quantities of bispecific antibody alone. The injections were performed over ˜45 seconds into one of the tail veins, followed by 200 μl of saline. The infusions were repeated six days later. Perpendicular tumor diameters were measured at regular intervals and tumor volumes were calculated.

citrated mouse plasma = experiment: In vitro coagulation assay: tTF constructs localized on A20 lymphoma cells via bispecific antibody B21-2/10H10; assay type: cell-based; details: for time in which plasma coagulated: FIG. 20; for coagulation time: FIG. 4B
Method: This assay was used to verify that tTF, various derivatives and mutants thereof, and immunoglobulin-tTF conjugates acquire coagulation inducing activity once localized at a cell surface. A20 lymphoma cells (I-A^d positive) (2×10^6 cells/ml, 50 μl) were incubated for 1 h at room temperature with a bispecific antibody (50 μg/ml, 25 μl) consisting of a Fab′ arm of the B21-2 antibody directed against I-A^d linked to a Fab′ arm of the 10H10 antibody directed against a non-inhibitory epitope on tTF. The cells were washed at room temperature and varying concentrations of tTF, derivatives or mutants thereof, or immunoglobulin-tTF conjugates were added for 1 hour at room temperature. The bispecific antibody captures the tTF or tTF linked to immunoglobulin, bringing it into close approximation to the cell surface, where coagulation can proceed.
The cells were washed again at room temperature, resuspended in 75 μl of PBS and warmed to 37° C. […] The time for the first fibrin strands to form was recorded. Clotting time was plotted against tTF concentration and curves compared with standard curves prepared using standard tTF219 preparations.

[4] = tested on: C1300 Muγ mouse neuroblastoma; experiment: In vivo tumor thrombosis, C1300 Muγ tumors
Text: (§3) Tumor test systems were of four types: i) 3LL mouse lung carcinoma growing subcutaneously in C57BL/6 mice; ii) C1300 mouse neuroblastoma growing subcutaneously in BALB/c nu/nu mice; iii) HT29 human colorectal carcinoma growing subcutaneously in BALB/c nu/nu mice; and iv) C1300 Muγ mouse neuroblastoma growing subcutaneously in BALB/c nu/nu mice. The C1300 Muγ tumor is an interferon-γ secreting transfectant derived from the C1300 tumor (Watanabe et al., 1989).
Further, the C1300 (Muγ) tumor model of (Burrows, et al., 1992; incorporated herein by reference) was employed and modified as follows: (i) antibody B21-2 was used to target I-A^d; (ii) C1300(Muγ) tumor cells, a subline of C1300(Muγ) 12 tumor cells, that grew continuously in BALB/c nu/nu mice were used; and (iii) tetracycline was […] the mice's drinking water to prevent gut bacteria from inducing I-A^d on the gastrointestinal epithelium.
(§4) To establish tumors, 10^6 to 1.5×10^7 tumor cells were injected subcutaneously into the right anterior flank of the mice. When tumors had grown to various sizes, mice were randomly assigned to different study groups. Mice then received an intravenous injection of 0.5 mg/kg of tTF alone or linked to IgG, Fab′, or bispecific antibody. Other mice received equivalent quantities IgG, Fab′ or bispecific antibody alone. The injections were performed slowly into one of the tail veins over approximately 45 seconds, usually followed by 200 μl of saline.
(§5) Twenty-four hours after being injected with tTF or immunoglobulin-tTF conjugates, the mice were anesthetized with metophane and were exsanguinated by perfusion with heparinized saline. Tumors and normal tissues were excised and immediately fixed in 3% (v/v) formalin. Paraffin sections were cut and stained with hematoxylin and eosin. Blood vessels having open lumens containing erythrocytes and blood vessels containing thrombi were counted. Paraffin sections were cut and stained with hematoxylin and eosin or with Martius Scarlet Blue (MSB) trichrome for the detection of fibrin.

[5] = tested on: C1300 mouse neuroblastoma; experiment: In vivo tumor thrombosis, C1300 tumors
Text: as §3, §4
(§6) Twenty-four hours after being injected with tTF or immunoglobulin-tTF conjugates, the mice were anesthetized with metophane and were exsanguinated by perfusion with heparinized saline. Tumors and normal tissues were excised and immediately fixed in 3% (v/v) formalin. […] Blood vessels having open lumens containing erythrocytes and blood vessels containing thrombi were counted. […]

3LL mouse lung carcinoma = experiment: In vivo tumor thrombosis, 3LL tumors; details: C57BL/6 mice, large (>800 mm^3) tumors; FIG. 11
Text: as §3, §4, §6

[6] = tested on: C1300 Muγ (interferon-secreting) neuroblastoma; experiment: Anti-tumor effects (tumor growth), C1300 Muγ tumors; assay type: in vivo, mouse
Method: as §1, §2

[7] = tested on: H460 human non-small cell lung carcinoma; experiment: Anti-tumor effects (tumor growth), H460 tumors; assay type: in vivo, mouse; details: FIG. 13
Method: as §1, §2

[8] = tested on: HT29 human colorectal carcinomas; experiment: Anti-tumor effects (tumor growth), HT29 tumors; assay type: in vivo, mouse; details: nu/nu mice, large (1200 mm^3) tumors, intravenous; FIG. 14
Method: Anti-tumor effects were also observed in mice bearing HT29 human colorectal carcinomas (FIG. 14). Nu/nu mice bearing large (1200 mm^3) tumors on their flanks were injected intravenously with tTF219 or PBS (control), and growth of the tumors was monitored each day for 10 days. The tumors in the tTF219 treated mice discontinued growth for about 7 days after treatment, whereas the tumors in mice treated with PBS continued to grow unchecked.

[9] = Toxicity and histology of normal organs in treated tumor-bearing mice; assay type: in vivo, mouse; details: 30 minutes or 24 hours after administration
Text: as §5

factor X = details: appropriate phospholipid membrane environment; Ruf, et al., 1991b; cited from earlier work
[10] = Toxicity to mice of tTF mutants and Factor VIIa given separately; assay type: in vivo

Factor VIIa: recombinant human Factor VIIa
necrosis in tumor sections, in words [1]: some necrosis | half-life in vivo [2]: approximately two

COc1cc([C@@H]2c3cc4c(cc3[C@@H](O[C@@H]3O[C@@H]5CO[C@@H](C)O[C@H]5[C@H](O)[C@H]3O)[C@H]3COC(=O)[C@H]23)OCO4)cc(OC)c1O [etoposide]
average tumor volume [3]: 1400 mm^3

B1: tTF219: truncated Tissue Factor: residues 1-219 of TF plus an additional glycine at the N-terminus; SEQ ID NO:1 (protein)
chain: GSGTTNTVAAYNLTWKSTNFKTILEWEPKPVNQVYTVQISTKSGDWKSKCFYTTDTECDLTDEIVKDVKQTYLARVFSYPAGNVESTGSAGEPLYENSPEFTPYLETNLGQPTIQSFEQVGTKVNVTVEDERTLVRRNNTFLSLRDVFGKDLIYTLYYWKSSSSGKKTAKTNTNEFLIDVDKGENYCFSVQAVIPSRTVNRKSTDSPVECMGQEKGEFRE
time in which plasma coagulated (citrated mouse plasma; 10^−10 M tTF219, absence of Factor VIIa): 60 s | time in which plasma coagulated (citrated mouse plasma; 10^−10 M tTF219, presence of 13.5 nM Factor VIIa): 20 s | coagulation time (citrated mouse plasma; 20,000 molecules per cell): 140 s | coagulation time (citrated mouse plasma; 300,000 molecules of tTF per cell): 40 s | effect on coagulation time (citrated mouse plasma; A20 cells incubated without both specificities needed to bind tTF to the cells, FIG. 4A): no effect on coagulation time | increase in coagulation-inducing potency of tTF (citrated mouse plasma; presence of 0.1 nM Factor VIIa): 2-5 fold | time until fibrin strands were visible after the addition of plasma (citrated mouse plasma; tTF bound to A20 cells by B21-2/10H10, mouse plasma, FIG. 4A): 36 s | thrombosis of tumor vessels ([4]; 24 hours after injection, large tumors, FIG. 9): practically all vessels in all regions of the tumor were thrombosed | effect on tumor vessels ([4]; small (<500 mm^3) tumors): largely unaffected | gross appearance of tumors ([4]; starting within 30 minutes, progressively more marked up to 24 hours): blackened, bruised appearance | thrombosis of tumor vessels ([5]; large tumors (>1000 mm^3), 24 hours after injection, FIG. 10): virtually all vessels were thrombosed | effect on tumor vessels ([5]; small (<500 mm^3) tumors): largely unaffected | tumor vessels thrombosed, on average (3LL mouse lung carcinoma): 62% | tumor size relative to controls receiving diluent alone ([6]; fourteen days after the first injection, small (300 mm^3) tumors, treatment repeated 6 days later, FIG. 18): 75% | tumor response ([6]; large (0.8 to 1.0 cm diameter) tumors, two intravenous injections 6 days apart, FIG. 12A): grew significantly more slowly | tumor size relative to tumors in mice receiving diluent alone ([6]; one week after the second treatment, small (300 mm^3) tumors at start): 60% | effect of the first treatment on tumor growth ([6]; small (300 mm^3) tumors, 16-20 μg intravenously, FIG. 12B): slight inhibitory effect on tumor growth | effect of the second treatment on tumor growth ([6]; treatment repeated one week later, FIG. 12B): substantially greater, statistically significant (P<0.01), effect on tumor growth | tumor volume to which tumors regressed before regrowing ([7]; second treatment given when tumors were 900 mm^3): 550 mm^3 | effect of the first treatment ([7]; tumors small (250 mm^3)): little effect on growth rate | time for which tumors discontinued growth after treatment [8]: about 7 days | necrosis in tumor sections, in words [1]: some necrosis | thrombi or abnormalities in paraffin sections of liver, kidney, lung, intestine, heart, brain, adrenals, pancreas, spleen [9]: neither thrombi, nor histological or morphological abnormalities were visible | times less factor X-activating activity relative to native transmembrane TF (factor X): approximately 10^5 times

B2: tTF219 (G164A): amino acid 164 (Gly) of tTF219 replaced by Ala; SEQ ID NO:9 (protein)
chain: SGTTNTVAAYNLTWKSTNFKTILEWEPKPVNQVYTVQISTKSGDWKSKCFYTTDTECDLTDEIVKDVKQTYLARVFSYPAGNVESTGSAGEPLYENSPEFTPYLETNLGQPTIQSFEQVGTKVNVTVEDERTLVRRNNTFLSLRDVFGKDLIYTLYYWKSSSSAKKTAKTNTNEFLIDVDKGENYCFSVQAVIPSRTVNRKSTDSPVECMGQEKGEFRE
coagulation times compared with tTF219 and Factor VIIa at the same concentrations (citrated mouse plasma; addition of Factor VIIa at 1 nM or greater, FIG. 22): only marginally slower coagulation times | coagulation-inducing activity once localized on A20 cells via B21-2/10H10, in words (compared with tTF219) (citrated mouse plasma; plasma coagulation): Weak coagulation | necrosis in tumor sections, in words [1]: some necrosis | toxicity to mice [10]: practically non-toxic
